Data on three molecules can be found in patent publication US20050090643A1.

B1: CVN Gln50 deletion mutant (ΔQ50-CVN), obligate domain-swapped dimer of cyanovirin (protein)
chain: LGKFSQTCYNSAIQGSVLTSTCERTNGGYNTSSIDLNSVIENVDGSLKWPSNFIETCRNTQLAGSSELAAECKTRAQQFVSTKINLDDHIANIDGTLKYE
B2: dimeric wild-type CVN (protein)
chain: LGKFSQTCYNSAIQGSVLTSTCERTNGGYNTSSIDLNSVIENVDGSLKWQPSNFIETCRNTQLAGSSELAAECKTRAQQFVSTKINLDDHIANIDGTLKYE
B3: monomeric wild-type CVN (protein)
chain: LGKFSQTCYNSAIQGSVLTSTCERTNGGYNTSSIDLNSVIENVDGSLKWQPSNFIETCRNTQLAGSSELAAECKTRAQQFVSTKINLDDHIANIDGTLKYE

For the experiment, the target named is viral envelope glycoprotein gp120 of human immunodeficiency virus (HIV-1) (HIV-1). Description: cell-based or functional assay.
The molecule B1 registered an IC50 in quantitative vaccinia virus-based HIV-1 fusion assay of 9 nM and an average KD from non-linear least squares best fitting of HIV-1 fusion assay titration data to a two-independent site model of 22 nM.

On to B2, for which the IC50 in quantitative vaccinia virus-based HIV-1 fusion assay turned out to be 9 nM and the average KD from non-linear least squares best fitting of HIV-1 fusion assay titration data to a two-independent site model worked out at 21 nM.

The molecule B3 had an IC50 in quantitative vaccinia virus-based HIV-1 fusion assay of 32 nM and an average KD from non-linear least squares best fitting of HIV-1 fusion assay titration data to a two-independent site model of 67 nM.
